# Experimental data reported in article PMC11417369, “DNA sequence and chromatin differentiate sequence-specific transcription factor binding in the human malaria parasite Plasmodium falciparum”.
# T1: AP2-HC D1 (Plasmodium falciparum, UniProt Q8IKR9 1316-1374)
# T1 sequence: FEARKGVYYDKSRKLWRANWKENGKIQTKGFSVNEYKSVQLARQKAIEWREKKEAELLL
# T2: AP2-LT D1 (Plasmodium falciparum, UniProt Q8IAM1 2520-2577)
# T2 sequence: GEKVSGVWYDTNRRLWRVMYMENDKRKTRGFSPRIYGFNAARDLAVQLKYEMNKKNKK
# B1: CACACA_negctrl_site1538 (dsDNA)
# DNA 1: TTTTTTTTTAAGATGAAGATCAATATATAAATATAT
# DNA 2: ATATATTTATATATTGATCTTCATCTTAAAAAAAAA
# B2: CACACA_negctrl_site1599 (dsDNA)
# DNA 1: TTTTTAAATTATTTGAAAAAAAGAAAATTATAAACA
# DNA 2: TGTTTATAATTTTCTTTTTTTCAAATAATTTAAAAA
# B3: CACACA_negctrl_site803 (dsDNA)
# DNA 1: TTTTGTAAAAAAAAAAAAAAAGGAAAATTAAAATAA
# DNA 2: TTATTTTAATTTTCCTTTTTTTTTTTTTTTACAAAA
# B4: CACACA_negctrl_site1509 (dsDNA)
# DNA 1: TTTAAAAAATGTTATATTATATAATTAAAAAAAAAA
# DNA 2: TTTTTTTTTTAATTATATAATATAACATTTTTTAAA
# B5: CACACA_negctrl_site934 (dsDNA)
# DNA 1: AATTTTATTTAATTTTTTTGGGAAATGATAAAATTT
# DNA 2: AAATTTTATCATTTCCCAAAAAAATTAAATAAAATT
# B6: CACACA_negctrl_site1027 (dsDNA)
# DNA 1: ATTAAAAAGACAAAAAAAAAATTTTTTTTTTTTTTT
# DNA 2: AAAAAAAAAAAAAAATTTTTTTTTTGTCTTTTTAAT
# B7: CACACA_negctrl_site22 (dsDNA)
# DNA 1: TTTTAAGATATAAATTAATACTTATATATATAGATA
# DNA 2: TATCTATATATATAAGTATTAATTTATATCTTAAAA
# B8: CACACA_negctrl_site1674 (dsDNA)
# DNA 1: TATTTTAATTATAAATTTAAAAAAAAAAAGAAAAAA
# DNA 2: TTTTTTCTTTTTTTTTTTAAATTTATAATTAAAATA
# B9: CACACA_negctrl_site640 (dsDNA)
# DNA 1: GTATATATATTTCTTTAATAATTAAATTATAAATAT
# DNA 2: ATATTTATAATTTAATTATTAAAGAAATATATATAC
# B10: CACACA_negctrl_site1788 (dsDNA)
# DNA 1: TTTTATAAAATATAATATAATAATATATGTATAATA
# DNA 2: TATTATACATATATTATTATATTATATTTTATAAAA
# B11: CACACA_negctrl_site1292 (dsDNA)
# DNA 1: TATATTTAGAATACAATCTTAAAGTTGAAATAAAAT
# DNA 2: ATTTTATTTCAACTTTAAGATTGTATTCTAAATATA
# B12: CACACA_negctrl_site694 (dsDNA)
# DNA 1: TAATTTATTACCATGTAATTATTACGAATATAGGAT
# DNA 2: ATCCTATATTCGTAATAATTACATGGTAATAAATTA
# B13: CACACA_negctrl_site1720 (dsDNA)
# DNA 1: TTCTCAAAATTAAAATAACAGATTAACGAACTAACG
# DNA 2: CGTTAGTTCGTTAATCTGTTATTTTAATTTTGAGAA
# B14: CACACA_negctrl_site261 (dsDNA)
# DNA 1: AACCTAAGCATTCTTCAAATTATATATGTAAAATGA
# DNA 2: TCATTTTACATATATAATTTGAAGAATGCTTAGGTT
# B15: CACACA_negctrl_site1739 (dsDNA)
# DNA 1: ACGATTCAAAGGGAATATAAAATATTATTATCTATA
# DNA 2: TATAGATAATAATATTTTATATTCCCTTTGAATCGT
# Key:
# AP2-HC D1 = biological target: T1, AP2-HC D1; test: gcPBM; about 25 ug protein; PBS, 1% milk, 0.2 mg/ml BSA, salmon testes DNA, 0.03% Triton X-100; conditions: tags: N-terminal GST (pGEX-4T-1), kept; label: surface-attached array probe
# AP2-LT D1 = biological target: T2, AP2-LT D1; test: as above; conditions: tags: N-terminal GST (pGEX-4T-1), kept; label: surface-attached array probe
Binder,binding signal (AP2-HC D1),binding signal (AP2-LT D1)
B1,"8.98 ln median PBM intensity, better of two orientations","8.23 ln median PBM intensity, better of two orientations"
B2,"9.26 ln median PBM intensity, better of two orientations","8.26 ln median PBM intensity, better of two orientations"
B3,"9.16 ln median PBM intensity, better of two orientations","8.33 ln median PBM intensity, better of two orientations"
B4,"9.35 ln median PBM intensity, better of two orientations","8.38 ln median PBM intensity, better of two orientations"
B5,"9.22 ln median PBM intensity, better of two orientations","8.39 ln median PBM intensity, better of two orientations"
B6,"9.26 ln median PBM intensity, better of two orientations","8.44 ln median PBM intensity, better of two orientations"
B7,"9.27 ln median PBM intensity, better of two orientations","8.45 ln median PBM intensity, better of two orientations"
B8,"9.42 ln median PBM intensity, better of two orientations","8.52 ln median PBM intensity, better of two orientations"
B9,"9.37 ln median PBM intensity, better of two orientations","8.59 ln median PBM intensity, better of two orientations"
B10,"9.41 ln median PBM intensity, better of two orientations","8.62 ln median PBM intensity, better of two orientations"
B11,"9.26 ln median PBM intensity, better of two orientations","8.65 ln median PBM intensity, better of two orientations"
B12,"9.4 ln median PBM intensity, better of two orientations","8.68 ln median PBM intensity, better of two orientations"
B13,"9.4 ln median PBM intensity, better of two orientations","8.7 ln median PBM intensity, better of two orientations"
B14,"9.41 ln median PBM intensity, better of two orientations","8.81 ln median PBM intensity, better of two orientations"
B15,"9.48 ln median PBM intensity, better of two orientations","8.83 ln median PBM intensity, better of two orientations"
